Data: publication PMC2818519 (Journal of structural biology, 2009)
One block for each molecule: values may come before it.

Columns and labels:
[1] = target: SUR2A nucleotide binding domain 2 (NBD2, G1301-K1546) (murine); assay: SAXS
SAXS = target: the molecule itself; assay: SAXS

stoichiometry N [1]: 8
Molecule: SUR2A nucleotide binding domain 2 (NBD2, G1301-K1546) (domain or fragment)

B1: SUR2A nucleotide binding domain 1 (NBD1, D666-890) (domain or fragment, murine, UniProt P70170-1 666-890, looked up)
chain: DIAIKVTNGYFSWGSGLATLSNIDIRIPTGQLTMIVGQVGCGKSSLLLAILGEMQTLEGKVYWNNVNESEPSFEATRSRSRYSVAYAAQKPWLLNATVEENITFGSPFNRQRYKAVTDACSLQPDIDLLPFGDQTEIGERGINLSGGQRQRICVARALYQNTNIVFLDDPFSALDIHLSDHLMQEGILKFLQDDKRTVVLVTHKLQYLTHADWIIAMKDGSVLRE
stoichiometry N (SAXS): 8
